Reference: publication doi:10.1101/163188

Assays:
[1] = system: TePif1 (Thermotoga elfii (Pseudothermotoga elfii)); experiment: EMSA
[2] = system: TePif1-4x (Thermotoga elfii (Pseudothermotoga elfii)); experiment: EMSA

Substance	Kd [1]	also measured
3' tail		binding signal [1]: > 20 % bound
Fork	4.4 nM	
ssDNA 45-nt	0.93 nM	
TTTTTTTTTTTTTTTTTTTTTTTTTTTTTTTTTTTTTTTTTTTTTTTTTT [poly(dT) 50mer]		binding signal [2]: 5 % bound
5' tail	4.53 nM	
